The values below come from article PMC7939481.

In the assay the target is human CaV2.1 (P/Q-type) voltage-gated calcium channel (human).

“human G-protein Gβ1γ2 heterodimer (from UniProt P62873-1 1-340; P59768 1-71) (complex)”: the τ activation of hCaV2.1 macroscopic current with co-expressed human Gβ1γ2, after a +150 mV prepulse amounted to 3.26 ms and the τ activation of hCaV2.1 macroscopic current with co-expressed human Gβ1γ2, without prepulse (1.16-1.20 ms without G proteins) is 10.6 ms.
